Test results from patent US20120294802A1 (ALDERBIO, published 2012).

T1: human Calcitonin Gene Related Peptide alpha (Homo sapiens, C-terminal amide (-NH2 printed after the last residue F; the filing words it as 'the N-terminal phenylalanine is amidated'); 125I radiolabeled in the receptor binding assay of Example 6)
T1 construct: 37-residue peptide bought from American Peptides and Bachem; Coated directly on plates in the ELISA of the recombinant antibodies; also called CGRPα; CGRP-alpha
T1 peptide: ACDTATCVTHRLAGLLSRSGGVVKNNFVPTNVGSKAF


Target: T1, human Calcitonin Gene Related Peptide …
Experiment: ELISA, plates coated with CGRPα, anti-human IgG Fc-HRP detection
Protocol: To characterize recombinant expressed antibodies for their ability to bind to human-CGRPα, antibody-containing solutions were tested by ELISA. All incubations were done at room temperature. Briefly, Immulon IV plagtes (Thermo Scientific), were coated with a CGRPα containing solution (1 ut/mL in PBS) for 2 hours. CGRPα-coated plates were then washed three times in wash buffer (PBS, 0.05% Tween-20). The plates were then blocked using a blocking solution (PBS, 0.5% fish skin gelatin, 0.05% Tween-20) for approximately one hour. The blocking solution was then removed and the plates were then incubated with a dilution series of the antibody being tested for approximately one hour. At the end of this incubation, the plate was washed three times with wash buffer and further incubated with a secondary antibody containing solution (Peroxidase conjugated affinipure F(ab′)2 fragment goat anti-human IgG, Fc fragment specific (Jackson Immunoresearch) for approximately 45 minutes and washed three times. At that point a substrate solution (TMB peroxidase substrate, BioFx) and incubated for 3 to 5 minutes in the dark. The reaction was stopped by addition of a HCl containing solution (0.5M) and the plate was read at 450 nm in a plate-reader.

| Binder | binding result |
| --- | --- |
| Antibody Ab2 (antibody, human IgG1, kappa, N297A, Humanized anti-CGRP antibody, full length) heavy: not shown light: QVLTQSPSSLSASVGDRVTINCQASQSVYDNNYLAWYQQKPGKVPKQLIYSTSTLASGVPSRFSGSGSGTDFTLTISSLQPEDVATYYCLGSYDCSSGDCFVFGGGTKVEIKRTVAAPSVFIFPPSDEQLKSGTASVVCLLNNFYPREAKVQWKVDNALQSGNSQESVTEQDSKDSTYSLSSTLTLSKADYEKHKVYACEVTHQGLSSPVTKSFNRGEC | binds |
| Antibody Ab5 (antibody, human IgG1, kappa, N297A) heavy: not shown light: QVLTQSPSSLSASVGDRVTINCQASQSVYHNTYLAWYQQKPGKVPKQLIYDASTLASGVPSRFSGSGSGTDFTLTISSLQPEDVATYYCLGSYDCTNGDCFVFGGGTKVEIKRTVAAPSVFIFPPSDEQLKSGTASVVCLLNNFYPREAKVQWKVDNALQSGNSQESVTEQDSKDSTYSLSSTLTLSKADYEKHKVYACEVTHQGLSSPVTKSFNRGEC | binds |
| Antibody Ab10 (antibody, human IgG1, kappa, N297A, Humanized anti-CGRP antibody, full length) heavy: not shown light: QVLTQSPSSLSASVGDRVTINCQASQNVYNNNYLAWYQQKPGKVPKQLIYSTSTLASGVPSRFSGSGSGTDFTLTISSLQPEDVATYYCLGSYDCSRGDCFVFGGGTKVEIKRTVAAPSVFIFPPSDEQLKSGTASVVCLLNNFYPREAKVQWKVDNALQSGNSQESVTEQDSKDSTYSLSSTLTLSKADYEKHKVYACEVTHQGLSSPVTKSFNRGEC | binds |
| Antibody Ab3 (antibody, human IgG1, kappa, N297A) heavy: not shown light: QVLTQSPSSLSASVGDRVTINCQASQSVYDNNYLAWYQQKPGKVPKQLIYSTSTLASGVPSRFSGSGSGTDFTLTISSLQPEDVATYYCLGSYDCSSGDCFVFGGGTKVEIKRTVAAPSVFIFPPSDEQLKSGTASVVCLLNNFYPREAKVQWKVDNALQSGNSQESVTEQDSKDSTYSLSSTLTLSKADYEKHKVYACEVTHQGLSSPVTKSFNRGEC | binds |
| Antibody Ab12 (antibody, human IgG1, kappa, N297A, V domains shown, Humanized anti-CGRP antibody, full length) VH: EVQLVESGGGLVQPGGSLRLSCAVSGIDVTNYYMQWVRQAPGKGLEWVGVIGVNGKRYYASWAKGRFTISRDNSKTTVYLQMNSLRAEDTAVYFCARGDIWGQGTLVTVSS VL: QVLTQSPSSLSASVGDRVTINCRASQSVYYNNYLAWYQQKPGKVPKQLIYSTSTLASGVPSRFSGSGSGTDFTLTISSLQPEDVATYYCLGSYDCSNGDCFVFGGGTKVEIKR | binds |
| Antibody Ab8 (antibody, human IgG1, kappa, N297A, V domains shown, Humanized anti-CGRP antibody, full length) VH: EVQLVESGGGLVQPGGSLRLSCAVSGIDLSNHYMQWVRQAPGKGLEWVGVVGINGRTYYASWAKGRFTISRDNSKTTVYLQMNSLRAEDTAVYFCARGDIWGQGTLVTVSS VL: QVLTQSPSSLSASVGDRVTINCQASQSVYNYNYLAWYQQKPGKVPKQLIYSTSTLASGVPSRFSGSGSGTDFTLTISSLQPEDVATYYCLGSYDCSTGDCFVFGGGTKVEIKR | binds |
| Antibody Ab14 (antibody, human IgG1, kappa, N297A, Humanized anti-CGRP antibody, full length) heavy: not shown light: QVLTQSPSSLSASVGDRVTINCQASQNVYNNNYLAWYQQKPGKVPKQLIYSTSTLASGVPSRFSGSGSGTDFTLTISSLQPEDVATYYCLGSYDCSRGDCFVFGGGTKVEIKRTVAAPSVFIFPPSDEQLKSGTASVVCLLNNFYPREAKVQWKVDNALQSGNSQESVTEQDSKDSTYSLSSTLTLSKADYEKHKVYACEVTHQGLSSPVTKSFNRGEC | binds |
| Antibody Ab6 (antibody, human IgG1, kappa, N297A, Humanized anti-CGRP antibody, full length) heavy: not shown light: QVLTQSPSSLSASVGDRVTINCQASQSVYHNTYLAWYQQKPGKVPKQLIYDASTLASGVPSRFSGSGSGTDFTLTISSLQPEDVATYYCLGSYDCTNGDCFVFGGGTKVEIKRTVAAPSVFIFPPSDEQLKSGTASVVCLLNNFYPREAKVQWKVDNALQSGNSQESVTEQDSKDSTYSLSSTLTLSKADYEKHKVYACEVTHQGLSSPVTKSFNRGEC | binds |

More lines, now with the values ahead:

| binding result | Binder |
| --- | --- |
| binds | Antibody Ab1 (antibody, human IgG1, kappa, N297A, V domains shown, Chimeric anti-CGRP antibody (rabbit variable regions, human gamma-1 and kappa constant regions), full length) VH: QSLEESGGRLVTPGTPLTLTCTVSGLDLSSYYMQWVRQAPGKGLEWIGVIGINDNTYYASWAKGRFTISRASSTTVDLKMTSLTTEDTATYFCARGDIWGPGTLVTVSS VL: QVLTQTASPVSAAVGSTVTINCQASQSVYDNNYLAWYQQKPGQPPKQLIYSTSTLASGVSSRFKGSGSGTQFTLTISDLECADAATYYCLGSYDCSSGDCFVFGGGTEVVVKR |
| binds | Antibody Ab7 (antibody, human IgG1, kappa, N297A, V domains shown, Chimeric anti-CGRP antibody, full length) VH: QEQLKESGGRLVTPGTSLTLTCTVSGIDLSNHYMQWVRQAPGKGLEWIGVVGINGRTYYASWAKGRFTISRTSSTTVDLKMTRLTTEDTATYFCARGDIWGPGTLVTVSS VL: QVLTQTASPVSAAVGSTVTINCQASQSVYNYNYLAWYQQKPGQPPKQLIYSTSTLASGVSSRFKGSGSGTQFTLTISDVQCDDAATYYCLGSYDCSTGDCFVFGGGTEVVVKR |
| binds | Antibody Ab11 (antibody, human IgG1, kappa, N297A, V domains shown, Chimeric anti-CGRP antibody, full length) VH: QSLEESGGRLVTPGGSLTLTCTVSGIDVTNYYMQWVRQAPGKGLEWIGVIGVNGKRYYASWAKGRFTISKTSSTTVDLKMTSLTTEDTATYFCARGDIWGPGTLVTVSS VL: QVLTQTASPVSPAVGSTVTINCRASQSVYYNNYLAWYQQKPGQPPKQLIYSTSTLASGVSSRFKGSGSGTQFTLTISDVQCDDAATYYCLGSYDCSNGDCFVFGGGTEVVVKR |
| binds | Antibody Ab9 (antibody, human IgG1, kappa, N297A, V domains shown, Chimeric anti-CGRP antibody, full length) VH: QSLEESGGRLVTPGTPLTLTCTVSGIGLSSYYMQWVRQSPGRGLEWIGVIGSDGKTYYATWAKGRFTISKTSSTTVDLRMASLTTEDTATYFCTRGDIWGPGTLVTVSS VL: QVLTQTPSPVSAAVGSTVTINCQASQNVYNNNYLAWYQQKPGQPPKQLIYSTSTLASGVSSRFRGSGSGTQFTLTISDVQCDDAATYYCLGSYDCSRGDCFVFGGGTEVVVKR |
| binds | Antibody Ab4 (antibody, human IgG1, kappa, N297A, V domains shown) VH: QSLEESGGRLVTPGTPLTLTCSVSGIDLSGYYMNWVRQAPGKGLEWIGVIGINGATYYASWAKGRFTISKTSSTTVDLKMTSLTTEDTATYFCARGDIWGPGTLVTVSS VL: QVLTQTPSPVSAAVGSTVTINCQASQSVYHNTYLAWYQQKPGQPPKQLIYDASTLASGVPSRFSGSGSGTQFTLTISGVQCNDAAAYYCLGSYDCTNGDCFVFGGGTEVVVKR |
